# Laboratory results reported in patent CN110407938A (BEIJING JOINN BIOTECHNOLOGY CO LTD, dated 2019).
# B1: 抗TIM-3抗体 (anti-TIM-3 monoclonal antibody of the invention) (antibody, V domains shown)
# VH: QVQLQESGPGLVKPGETLSLTCAVSGGSFSRGGYYWNWIRQPPGKGLEWIGYIYYSGSTNYNPSLKSRVTISLDTSKNQFSLKLSSVTAEDTAVYYCARDHYTSSYNYDYWGQGTLVTVSS
# VL: EIVLTQSPATLSLSPGERATLSCRASESVQSYIAWYQQKPGQAPRLLIYNASQRSTGIPARFSGSGSGTDFTLTISSLEPEDFAVYYCQQRFSWPPTFGQGTKLEIK
# notes: The variable regions were cloned into the ZY-CDMO vector and expressed in CHO cells; The antibody was purified on Protein A, captured by an anti-human IgG Fc antibody and detected with goat anti-human-HRP, so it carries a human IgG Fc; It came from a phage antibody library; also called 抗TIM-3单克隆抗体; 本发明抗TIM-3抗体
# Target: T1, TIM-3 (分析物, SPR analyte)
# T1 construct: also called TIM-3抗原; 分析物(TIM-3)
# Experiment: SPR (Biacore T200), 25°C; antibody captured by anti-human IgG Fc on a CM5 chip, TIM-3 as analyte at 0-100 nM, 1:1 binding model
# T1 sequence (Q8TDQ0 22-202): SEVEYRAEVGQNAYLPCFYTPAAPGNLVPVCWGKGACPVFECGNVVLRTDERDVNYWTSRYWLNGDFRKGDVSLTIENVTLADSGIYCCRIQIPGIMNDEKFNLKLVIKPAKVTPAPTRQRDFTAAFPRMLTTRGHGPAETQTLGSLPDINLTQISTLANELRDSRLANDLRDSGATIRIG
binder,measurement,value
B1,Kd,6.41 nM
